The results in this text go back to patent publication US20240270821A1, “GIP/GLP1/GCG TRI-RECEPTOR AGONISTS AND USES THEREOF” (priority 2023, published 2024).

What all share (experiment): cell-based or functional assay
The target of one experiment is hGLP-1R (Homo sapiens, UniProt P43220).
Experiment [1] deals with T1, human GIP receptor (human) (UniProt P48546).
T1 sequence (looked up): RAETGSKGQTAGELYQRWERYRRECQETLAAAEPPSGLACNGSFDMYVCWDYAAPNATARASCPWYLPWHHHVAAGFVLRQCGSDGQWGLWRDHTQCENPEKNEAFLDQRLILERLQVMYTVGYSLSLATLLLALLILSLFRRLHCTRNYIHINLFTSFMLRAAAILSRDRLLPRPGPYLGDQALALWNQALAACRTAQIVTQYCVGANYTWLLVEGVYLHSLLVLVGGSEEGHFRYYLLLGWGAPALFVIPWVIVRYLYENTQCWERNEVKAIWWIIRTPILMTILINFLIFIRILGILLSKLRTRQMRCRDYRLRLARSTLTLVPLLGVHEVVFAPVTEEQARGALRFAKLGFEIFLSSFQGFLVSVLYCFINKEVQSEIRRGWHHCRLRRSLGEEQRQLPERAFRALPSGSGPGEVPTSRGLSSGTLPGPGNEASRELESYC

The target in experiment [2] is human glucagon receptor (human) (UniProt P47871).

Starred links: 1 amine or outer side, 2 acyl side, 3 side chain; linkers in the order of their positions; H or OH if unused. Non-standard residues stand in square brackets, D forms with d. Groups on a side chain read outwards from the residue. No end group written: not given here. *: point of attachment. C18 diacid = O=C(O)CCCCCCCCCCCCCCCCC(=O)*; γGlu = O=C(O)[C@H](CCC(=O)[*:2])N[*:1]; 4Pal = N[C@@H](Cc1ccncc1)C(=O)O; αMeL = CC(C)C[C@](C)(N)C(=O)O; Dab = NCC[C@H](N)C(=O)O; Dap = NC[C@H](N)C(=O)O; AEEA = NCCOCCOCC(=O)O; Aib = CC(C)(N)C(=O)O

Chain of hGLP-1R (P43220 24-463): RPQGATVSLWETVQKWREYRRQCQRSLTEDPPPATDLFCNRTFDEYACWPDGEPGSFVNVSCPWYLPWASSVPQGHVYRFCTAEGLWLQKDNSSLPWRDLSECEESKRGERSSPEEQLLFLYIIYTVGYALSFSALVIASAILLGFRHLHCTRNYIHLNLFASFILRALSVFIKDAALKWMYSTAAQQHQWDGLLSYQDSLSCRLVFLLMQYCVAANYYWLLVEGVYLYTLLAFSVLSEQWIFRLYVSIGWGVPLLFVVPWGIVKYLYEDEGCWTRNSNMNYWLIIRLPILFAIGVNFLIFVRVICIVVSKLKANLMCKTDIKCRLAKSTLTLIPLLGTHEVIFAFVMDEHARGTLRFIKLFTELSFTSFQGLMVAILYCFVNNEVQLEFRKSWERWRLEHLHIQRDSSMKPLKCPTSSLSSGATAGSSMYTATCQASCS
Chain of human glucagon receptor (human) (P47871 26-477): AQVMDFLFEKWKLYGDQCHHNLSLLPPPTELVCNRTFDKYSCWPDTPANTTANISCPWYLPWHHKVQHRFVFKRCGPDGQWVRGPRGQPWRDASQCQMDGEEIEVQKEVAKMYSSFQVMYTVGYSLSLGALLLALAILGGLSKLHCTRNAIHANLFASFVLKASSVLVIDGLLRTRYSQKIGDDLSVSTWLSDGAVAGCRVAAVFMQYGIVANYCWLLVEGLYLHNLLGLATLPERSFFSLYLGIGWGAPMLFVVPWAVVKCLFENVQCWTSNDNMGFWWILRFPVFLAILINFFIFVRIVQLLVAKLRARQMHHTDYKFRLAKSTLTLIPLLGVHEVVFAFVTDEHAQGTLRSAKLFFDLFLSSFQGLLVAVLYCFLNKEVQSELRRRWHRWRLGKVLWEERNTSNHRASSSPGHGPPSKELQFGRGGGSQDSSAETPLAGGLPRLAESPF

B1: Example 807 (peptide)
chain: YXQGTFTSDXSRXLDKKAQXAFIEYLIEXSPSSGAPPPSGS
modifications: synthetic construct; SITE 2: note = 2-Aminoisobutyric Acid; SITE 10: note = 3-(4-Pyridyl)-L-alanine; SITE 13: note = alpha-methyl-leucine; SITE 17: note = Lysine is chemically modified through conjugation of the epsilon-amino group of the Lysine side chain with (2-[2-(2-Amino-ethoxy)-ethoxy]-acetyl)
With B1, the Relative cAMP EC50 with hGLP-1R was 1.72 nM; in experiment [1] it was 0.108 nM; in experiment [2], 12.4 nM.

B2: Example 1120 (peptide)
chain: YXQGTFTSDXSQXLDKKAQXAFIEXLIEXGPSSGAPPPSGE
modifications: Aib, 4Pal, αMeL, Me4Pal; acylated K; C-terminal amide; synthetic construct; SITE 2: note = 2-Aminoisobutyric Acid; SITE 10: note = 3-(4-Pyridyl)-L-alanine; SITE 13: note = alpha-methyl-leucine; SITE 17: note = Lysine is chemically modified through conjugation of the epsilon-amino group of the Lysine side chain with (gamma-Glu)2-CO-(CH2)16-CO2H; SITE 20:
Take B2: the Relative cAMP EC50 in the experiment with hGLP-1R turned out to be 4.5 nM; in experiment [1], 0.096 nM; in experiment [2] it was 5.17 nM.

B3: Example 1116 (peptide)
chain: YXQGTFTSDXSQXLDKKAQXAFIEXLIEXGPSSGAPPPSGTE
modifications: acylated Lys AEEA-γGlu-C18 diacid; non-natural residues; C-terminal amide; synthetic construct; SITE 2: note = 2-Aminoisobutyric Acid; SITE 10: note = 3-(4-Pyridyl)-L-alanine; SITE 13: note = alpha-methyl-leucine; SITE 17: note = Lysine is chemically modified through conjugation of the epsilon-amino group of the Lysine side chain with (2-[2-(2-Amino-ethoxy)-ethoxy]-acetyl)
Take B3: the Relative cAMP EC50 with hGLP-1R was 4.63 nM; in experiment [1], 0.134 nM; in experiment [2] it was 8.2 nM.

B4: Example 1118 (peptide)
chain: YXQGTFTSDXSQXLDKKAQXAFIEXLIEXGPSSGAPPPSGTE
modifications: Lys acylated with (γGlu)2-C18 diacid; non-natural residues; C-amide; synthetic construct; SITE 2: note = 2-Aminoisobutyric Acid; SITE 10: note = 3-(4-Pyridyl)-L-alanine; SITE 13: note = alpha-methyl-leucine; SITE 17: note = Lysine is chemically modified through conjugation of the epsilon-amino group of the Lysine side chain with (gamma-Glu)2-CO-(CH2)16-CO2H; SITE 20:
B4: the Relative cAMP EC50 in the experiment with hGLP-1R came out at 5.42 nM; in experiment [1], 0.128 nM; in experiment [2] it was 6.52 nM.

B5: Example 1121 (peptide)
chain: YXQGTFTSDXSQXLDKKAQXAFIEXLIEXGPSSGAPPPSGEE
modifications: Aib, 4Pal, αMeL, Me4Pal, acylated K, C-terminal amide; synthetic construct; SITE 2: note = 2-Aminoisobutyric Acid; SITE 10: note = 3-(4-Pyridyl)-L-alanine; SITE 13: note = alpha-methyl-leucine; SITE 17: note = Lysine is chemically modified through conjugation of the epsilon-amino group of the Lysine side chain with (gamma-Glu)2-CO-(CH2)16-CO2H; SITE 20:
B5: the Relative cAMP EC50 with hGLP-1R was 5.23 nM; in experiment [1] it was 0.115 nM; in experiment [2], 8.83 nM.

B6: Example 196 (peptide)
chain: YXQGTFTSDFSXXLDKKAQXAFIEYLLEGGPSSGAPPPGGS
modifications: not fully specified; free C-terminus (not amidated); synthetic construct; SITE 2: note = 2-Aminoisobutyric Acid; SITE 12: note = L-ornithine; SITE 13: note = alpha-methyl-leucine; SITE 17: note = Lysine is chemically modified through conjugation of the epsilon-amino group of the Lysine side chain with (2-[2-(2-Amino-ethoxy)-ethoxy]-acetyl)-(gamma-Glu)
Turning to B6, the cAMP Rel EC50, nM (1% HSA) worked out at 458 nM with hGLP-1R, 51.4 nM in experiment [1] and 620 nM in experiment [2].

B7: Example 872 (peptide)
chain: YXQGTFTSDXSQXLDKKAQXAFIEWLIEGGPSSGAPPPSGS
modifications: synthetic construct; SITE 2: note = 2-Aminoisobutyric Acid; SITE 10: note = 3-(4-Pyridyl)-L-alanine; SITE 13: note = alpha-methyl-leucine; SITE 17: note = Lysine is chemically modified through conjugation of the epsilon-amino group of the Lysine side chain with (gamma-Glu)2-CO-(CH2)16-CO2H; SITE 20:
In the case of B7, the Relative cAMP EC50 came out at 1.01 nM in the experiment with hGLP-1R, 0.205 nM in experiment [1] and 4.18 nM in experiment [2].

B8: Example 841 (peptide)
chain: YXQGTFTSDFSQXLDKKAQXAFIEXLIEGGPSSGAPPPSGS
modifications: synthetic construct; SITE 2: note = 2-Aminoisobutyric Acid; SITE 13: note = alpha-methyl-leucine; SITE 17: note = Lysine is chemically modified through conjugation of the epsilon-amino group of the Lysine side chain with (2-[2-(2-Amino-ethoxy)-ethoxy]-acetyl)-(gamma-Glu)-CO-(CH2) 16-CO2H; SITE 20: n
In the case of B8, the figures for the Relative cAMP EC50 (with hGLP-1R; in experiment [1]; in experiment [2]) were 0.336 nM, 0.194 nM and 9.71 nM, respectively.

B9: Example 875 (peptide)
chain: YXQGTFTSDFSQXLDKKAQXAFIEYLIAGGPSSGAPPPSGS
modifications: synthetic construct; SITE 2: note = 2-Aminoisobutyric Acid; SITE 13: note = alpha-methyl-leucine; SITE 17: note = Lysine is chemically modified through conjugation of the epsilon-amino group of the Lysine side chain with (2-[2-(2-Amino-ethoxy)-ethoxy]-acetyl)-(gamma-Glu)-CO-(CH2) 16-CO2H; SITE 20: n
B9: the Relative cAMP EC50 with hGLP-1R amounted to 0.771 nM; in experiment [1], 0.101 nM; in experiment [2], 3.65 nM.

B10: Example 941 (peptide)
chain: YXQGTFTSDXSXXLDKKAQXAFIEXLIEGGPSSGAPPPSGS
modifications: synthetic construct; SITE 2: note = 2-Aminoisobutyric Acid; SITE 10: note = 3-(4-Pyridyl)-L-alanine; SITE 12: note = L-ornithine; SITE 13: note = alpha-methyl-leucine; SITE 17: note = Lysine is chemically modified through conjugation of the epsilon-amino group of the Lysine side chain with (gamma-Gl)
As for B10, the results for the Relative cAMP EC50 (with hGLP-1R; in experiment [1]; in experiment [2]) were 0.764 nM, 0.183 nM and 11.7 nM, respectively.

B11: Example 942 (peptide)
chain: YXQGTFTSDXSXXLDKKAQXAFIEXLLEGGPSSGAPPPSGS
modifications: synthetic construct; SITE 2: note = 2-Aminoisobutyric Acid; SITE 10: note = 3-(4-Pyridyl)-L-alanine; SITE 12: note = L-ornithine; SITE 13: note = alpha-methyl-leucine; SITE 17: note = Lysine is chemically modified through conjugation of the epsilon-amino group of the Lysine side chain with (gamma-Gl)
For the molecule B11, the Relative cAMP EC50 with hGLP-1R was found to be 3.52 nM; in experiment [1] it was 0.188 nM; in experiment [2] it was 6.32 nM.

B12: Example 938 (peptide)
chain: YXQGTFTSDXSQXLDKKAQXAFIEXLLEGGPSSGAPPPSGS
modifications: synthetic construct; SITE 2: note = 2-Aminoisobutyric Acid; SITE 10: note = 3-(4-Pyridyl)-L-alanine; SITE 13: note = alpha-methyl-leucine; SITE 17: note = Lysine is chemically modified through conjugation of the epsilon-amino group of the Lysine side chain with (gamma-Glu)2-CO-(CH2)16-CO2H; SITE 20:
Regarding B12, the results for the Relative cAMP EC50 (with hGLP-1R; in experiment [1]; in experiment [2]) were 1.84 nM, 0.13 nM and 13.3 nM, respectively.

B13: Example 876 (peptide)
chain: YXQGTFTSDFSQXLDKKAQXAFIEYLIAGGPSSGAPPPSGS
modifications: not fully specified; synthetic construct; SITE 2: note = 2-Aminoisobutyric Acid; SITE 13: note = alpha-methyl-leucine; SITE 17: note = Lysine is chemically modified through conjugation of the epsilon-amino group of the Lysine side chain with (gamma-Glu)2-CO-(CH2)16-CO2H; SITE 20: note = 3-(4-Pyridyl)-L-alanine; SITE 41:
Turning to B13, the Relative cAMP EC50 with hGLP-1R came to 0.456 nM; in experiment [1], 0.053 nM; in experiment [2], 3.28 nM.

B14: Example 203 (peptide)
chain: Y[Aib]QGTFTSDFS[Dap][αMeL]LDKK([γGlu-γGlu-C18 diacid])AQ[Aib]AFIEYLLE[Aib]GPSSGAPPPSGS-NH2
Turning to B14, the cAMP Rel EC50, nM (1% HSA) turned out to be 532 nM with hGLP-1R, 19 nM in experiment [1] and 1160 nM in experiment [2].

B15: Example 803 (peptide)
chain: Y[Aib]QGTFTSD[4Pal]S[Dab][αMeL]LDKK([AEEA-γGlu-C18 diacid])AQ[Aib]AFIEYLIE[Aib]GPSSGAPPPSGS-NH2
With B15, the Relative cAMP EC50 was found to be 2.02 nM with hGLP-1R, 0.232 nM in experiment [1] and 9.75 nM in experiment [2].

B16: Example 891 (peptide)
chain: YXQGTFTSDXSQXLDKKAQXAFIEYLIEXGPSSGAPPPSGSGE
modifications: not fully specified; possible C-terminal amide; synthetic construct; SITE 2: note = 2-Aminoisobutyric Acid; SITE 10: note = 3-(4-Pyridyl)-L-alanine; SITE 13: note = alpha-methyl-leucine; SITE 17: note = Lysine is chemically modified through conjugation of the epsilon-amino group of the Lysine side chain with (gamma-Glu)2-CO-(CH2)16-CO2H; SITE 20:
In the case of B16, the Relative cAMP EC50 amounted to 3.25 nM in the experiment with hGLP-1R, 0.155 nM in experiment [1] and 3.14 nM in experiment [2].
